The numbers were not newly measured in PMC5177622, “Multivalent Histone and DNA Engagement by a PHD/BRD/PWWP Triple Reader Cassette Recruits ZMYND8 to K14ac-Rich Chromatin” (Cell Reports, 2016), which cites them from elsewhere.

Where two headings read alike, the source gives them in different places.

The target of the data set is T1, human BAZ2B (UniProt: Q9UIF8 residues 2054-2168) WT (Homo sapiens, UniProt Q9UIF8).
T1 construct: residues 2054- 2168; made in house
T1 sequence (Q9UIF8 2054-2168): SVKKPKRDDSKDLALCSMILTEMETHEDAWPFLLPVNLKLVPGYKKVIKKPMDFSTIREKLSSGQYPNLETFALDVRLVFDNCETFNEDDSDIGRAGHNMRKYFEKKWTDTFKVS
The following applies: ITC. On the procedure: Titrations were carried out in 20 mM HEPES pH 7.5 (at 25 °C), 200 mM NaCl and 15 °C while stirring at 1000 rpm. Peptides were titrated into protein solutions. Data related to Fi gur e 5. [P] [Pep] KD ΔHobs TΔS ΔG B AZ 2 B Peptide (μM) (μM) (μM) ...

The mark [1] stands for this setting: ref Filippakopoulos et al., 2012.

Regarding “H3(5-25)K14ac: histone H3 residues 5-25 peptide bearing K14ac; data from Philpott et al., 2011”, where the note is “ref Philpott et al., 2011”, the Kd was 6.3 ± 0.2 µM, the N is 1.00 ± 0.007, the TΔS was -0.12 kcal/mol and the ΔG was -6.74 kcal/mol. The ΔHobs (ref Philpott et al., 2011) is listed as -6.86 ± 0.06 kcal/mol.
With “H3(9-19)K14ac: histone H3 residues 9-19 peptide bearing K14ac; data from Filippakopoulos et al., 2012”, under setting [1], the Kd is 7.6 ± 0.3 µM, the N is reported as 0.99 ± 0.007, the TΔS is recorded as -2.27 kcal/mol and the ΔG is recorded as -6.64 kcal/mol. In addition, under setting [1], the ΔHobs is listed as -8.91 ± 0.08 kcal/mol.
